Reference: patent US20070009972A1, “Epidermal growth factor receptor polypeptides and antibodies” (priority 2005, published 2007)
Changes are numbered by the printed parent chain. *: point of attachment. Biotin = O=C1N[C@H]2[C@H](CS[C@H]2CCCCC(=O)*)N1; Ahx = NCCCCCC(=O)O

Assays:
[1] = molecular target: T1, EGFR (Homo sapiens, UniProt P00533); test: Cyclic polypeptide inhibition of EGFR phosphorylation in model HMEC cell system; assay type: cell-based; conditions: biotinylated cyclic polypeptide
T1 construct: tested them in a model HMEC cell system; endogenous in cells; host or cells: 184A1 human mammary epithelial cells (HMECs)
From the text: We selected amino acid sequences corresponding to fragments of Domain II and Domain IV of EGFR. The sequence of each polypeptide is shown in the first column of Table 1. The polypeptides were chosen based on their positions on the crystal structures of monomeric and dimeric EGFR (Burgess et al., Mol. Cell 12:541-552, 2003). Although Domain IV of EGFR is not resolved in the dimer crystal structure, it is believed that portions of Domain IV come into contact upon dimerization. […] We generated biotinylated cyclic polypeptides that included each sequence and tested them in a model HMEC cell system. The sequences of the biotinylated cyclic polypeptides are shown in the third column of Table 1. […] For the LYNPTTYQMD polypeptide, the different results obtained from polypeptide and polyclonal antisera inhibition could be due to differences in the quantitative details of the assays, or the polypeptide could have a lower affinity for the receptor than the polyclonal antisera does.

[2] = molecular target: T2, Biotin-GCGLYNPTTYQMDGCG-CONH2 (SEQ ID NO:7) (not fully specified (bridges); printed as Biotin-GCGLYNPTTYQMDGCG-; also: cyclic (type of ring not given here)); test: yeast surface display screen of naive human library against the peptide (1 round MACS, 3 rounds FACS); clone isolated as specific binder
T2 construct: Biotinylated cyclic polypeptide tested on HMECs; also called EGFR Domain II (245-254) peptide
T2 peptide: Biotin-GCGLYNPTTYQMDGCG-NH2

[3] = molecular target: T3, Biotin-GCAHYIDGPHCG-CONH2 (SEQ ID NO:9) (not fully specified (bridges); printed as Biotin-GCAHYIDGPHCG-; also: cyclic (type of ring not given here)); test: as above
T3 construct: Biotinylated cyclic polypeptide; also called EGFR Domain IV (558-567) peptide
T3 peptide: Biotin-GCAHYIDGPHCG-NH2

[4] = molecular target: T4, Biotin-Aha-CMGENNTG-CONH2 (SEQ ID NO:10) (also: called cyclic, ring not described); test: as above
T4 construct: also called EGFR Domain IV (576-581) peptide
T4 peptide: {Biotin-Ahx}-CMGENNTG-NH2

[5] = molecular target: T5, Biotin-GCLVWKYADAGCG-CONH2 (SEQ ID NO:11) (not fully specified (bridges); printed as Biotin-GCLVWKYADAGCG-; also: cyclic (ring type and places not given here)); test: as above
T5 construct: Biotinylated cyclic polypeptide; also called EGFR Domain IV (582-590) peptide
T5 peptide: Biotin-GCLVWKYADAGCG-NH2

[6] = molecular target: T6, Biotin-GCRNVSRGRECG-CONH2 (SEQ ID NO:8) (not fully specified (bridges); printed as Biotin-GCRNVSRGRECG-; also: cyclic (ring type and places not given here)); test: as above
T6 construct: Biotinylated cyclic polypeptide; also called EGFR Domain IV (502-511) peptide
T6 peptide: Biotin-GCRNVSRGRECG-NH2

CAHYIDGPHC [Biotin-GCAHYIDGPHCG-CONH2] was tested, and the “Peptide Inhibition” value [1] was “Yes”.

With LVWKYADAG [Biotin-GCLVWKYADAGCG-CONH2] the “Peptide Inhibition” value [1] was “Yes”.

For CRNVSRGREC [Biotin-GCRNVSRGRECG-CONH2], the “Peptide Inhibition” value [1] was “Yes”.

For “LYNPTTYQMD [Biotin-GCGLYNPTTYQMDGCG-CONH2]”, the “Peptide Inhibition” value [1] was “No”.

B1: SEQ ID NO 18 (other)
VH: QVQLVQSEGGVVQPGRSLRLSCAASGFTFSSYAMHWVRQAPGKGLEWVAVISYDGSNKYYADSVKGRFTISRDNSKNTLYLQMNSLRAEDTAVYYCARDEGYYGSGCIDYWGQGTLVTVSSGILGSGGGSGGGGSGGGGLQEF
B1: binds [2].

B2: SEQ ID NO 27 (scFv)
scFv: QITLKESGPTLVKPTQTLTLTCTFSGFSLSTNGVGVGWIRQPPGKALEWLALIYWNDDKRYSPSLKRRLTITKDTSKNQVVLTMTNMDPVDTATYYCAHRLLDSGYILPPTFDYWGQGTLVTVSSGILGSGGGGSGGGGSGGGGSEIVLTQSPGTLSLSPGERATLSCRASQSVNSGYLAWYQQKPGQAPRLLISAASSRATGIPDRFSGSGSGTDFTLTISRLEPEDFAVYYCQRYDTSRGFTFGPGTKVDIKSGF
B2: binds [3].

B3: SEQ ID NO 28 (scFv)
scFv: QVQLQQSGPGLVKPSQTLSLTCAISGDSVSSNSAAWNWIRQSPSRGLEWLGRTYYRSKWYNEYAVSVKSRITINPDTSKNHFSLQLNSVTPEDTAVYYCAREIVGTPFDYWGQGTLVTVSSGILGSGGGGSGGGGSGGGGSDIRVTQSPSSLSASVGDRVTITCRTSQSASKYVNWYQQKPGKVPKLLIYAASSLQSGVPSRFSGSGSGTHFTLSISNLQPGDMGTYYCQQGYGTPLTFGGGTKLEIKSGF
B3: binds [3].

B4: SEQ ID NO 35 (scFv)
scFv: QVQLVESEGRLVKPGGSLRLSCVASGMTFNNAWMSWVRQAPGKGLEWVGRIRSESNGGTTDYAAPGKGRFTISRDDSKNTLYLQMNSLQIEDTAVYYCATDRGYSNSGNYYRHYWGQGTLVTVSSGILGSGGGGSGGGGSGGGGSDIRLTQSPSSLSASVGDRVTITCQASQDISNYLNWYQQKPGKAPKLLIYDASNLETGVPPRFSGSGSGTAFTFTISSLQPEDFATYYCQQYDNLPHTFGPGTKVDIKSGILEQKLISEEDL
B4: binds [3].

B5: SEQ ID NO 36 (other)
VH: QVQLQESGPGLVKPSETLSLTCTFSGGSIRSSSDYWGWVRQPPGKGLEWIGSISSSGSTYYNPSLKSRVTISVDTSRNQFSLRLSSVTAADTAIYYCARYNHYWYFDLWGRGTLVTVSSGILGSGGGSGGGGSGGGGSKRHSRSLQHSSQRLQETKSTSPAKPAKTLMMI
notes: also called VH clone isolated against MGENNT
B5: binds [4].

B6: SEQ ID NO 19 (other)
VH: QVQLVQSEGGVVQPGRSLRLSCAAPGFTFSSYAMHWVRQAPGKGLEWVAVISYDGSNKYYADSVKGRFTISRDNSKNTLYLQMNSLRAEDTAVYYCARDEGYYGSGCIDYWGQGTLVTVSSGILGSGGGGSGGGGSGGGGLQEF
B6: binds [2].

B7: SEQ ID NO 37 (other)
VH: QVQLQESGPGLVKPSETLSLTCTVSGGSISNSDYYWGWIRQPPGKGLRWIGSINYYGTTYYNPSLKSRVAMSVDTSKNQFSLKLSSVTAADTAVYYCARRGANSWFFDLWGRGTLVTVSSGILGSGGGSGGGGSGGGGLQEF
notes: as for B5
B7: binds [4].

B8: SEQ ID NO 38 (other)
VH: QITLKESGPTVVKPTQTLTLTCTFSGFSLSTSGVGVGWIRQPPGKALEWLALISWDDDKRYSPSLKSRLTITKDTSKNQVVLTMTNMDPVDTATYFCAHLNNFVDAIELRTGWCFDVWGRGTLVTVSGILGSGGGGSGGGGSGGGVLKLC
B8: binds [5].

B9: SEQ ID NO 39 (other)
VH: B8 VH with N101I, C150R
B9: binds [5].

B10: SEQ ID NO 20 (other)
VH: QVQLQQSGPGLVKPSQTLSLTCDISGDSVSSDSAAWNWIRLSPSRGLEWLGRTYYWSKWYTDYAVSVKSRITINPDTSKNQFSLQLNSVTPEDTAVYFCARERYCSSTSCYLDAFDIWGQGTMVTVSGILGSGGGGSGGGGSGGGGLQEF
B10: binds [6].

B11: SEQ ID NO 21 (other)
VH: QVQLQQWGPGLLKPSETLSLTCGVSGGSLSGYYWSWIRQSPGKELEWIGEINQGGSTNYNPSLRSRVTISVDTSKKQLSLKVNSVTASDTAVYYCARETFRGSNCFDSWGQGTLVTVSSGILGSGGGIGGGGSGGGGLQEF
B11: binds [6].
